Drawing on article PMC5932034 (2018), this text covers ratio to parent for 13 variants.

B1: fused FliT−FliD^C construct (FliD^C fused to the N terminus of FliT) [Salmonella enterica serovar Typhimurium ST313] / cytoplasmic domain of Salmonella enterica serovar Typhimurium FlhA (FlhA^C) [Salmonella enterica serovar Typhimurium … (parent complex)
chain 1: GAHMSIDETVARYKAQFTQLDTMMSKLNNTSSYLTQQFTAMNKSGGSGGSGSGGSGGMTSTVEFINRWQRIALLSQSLLELAQRGEWDLLLQQEVSYLQSIETVMEKQTPPGITRSIQDMVAGYIKQTLDNEQLLKGLLQQRLDELSSLIGQSTRQKSLNNAYGRLSGMLLVPDAPGAS
chain 2: SLGMEVGYRLIPMVDFQQDGELLGRIRSIRKKFAQDMGFLPPVVHIRDNMDLQPARYRILMKGVEIGSGDAYPGRWLAINPGTAAGTLPGEKTVDPAFGLDAIWIESALKEQAQIQGFTVVEASTVVATHLNHLIGQFSAELFGRQEAQQLLDRVSQEMPKLTEDLVPGVVTLTTLHKVLQNLLAEKVPIRDMRTILETLAEHAPLQSDPHELTAVVRVALGRAITQQWFPGNEEVQVIGLDTALERLLLQALQGGGGLEPGLADRLLAQTQEALSRQEMLGAPPVLLVNHALRPLLSRFLRRSLPQLVVLSNLELSDNRHIRMTATIGGK
B2: fused FliS−FliC^C construct (FliC^C fused to the C terminus of FliS) [not stated] / cytoplasmic domain of Salmonella enterica serovar Typhimurium FlhA (FlhA^C) [Salmonella enterica serovar Typhimurium ST313] (parent complex)
chain 1: MYTASGIKAYAQVSVESAVMSASPHQLIEMLFDGANSALVRARLFLEQGDVVAKGEALSKAINIIDNGLKAGLDQEKGGEIATNLSELYDYMIRRLLQANLRNDAQAIEEVERLLSNIAEAWKQISPKASFQESRGTASGAGGSEGGGSEGGTSGATEDSDYATEVSNMSRAQILQQAGTSVLAQANQVPQNVLSLLR
chain 2: B1 chain 2

The variants in the first assay derive from B1. Put plainly: ITC; parent: 1; read off a plot.
For chain 2 SLGMEVGYRLIPMVDFQQDGELLGRIRSIRKKFAQDMGFLPPVVHIRDNMDLQPARYRILMKGVEIGSGDAYPGRWLAINPGTAAGTLPGEKTVDPAFGLDAIWIESALKEQAQIQGFTVVEASTVVATHLNHLIGQFSAELFGRQEAQQLLDRVSQEMPKLTEDLVPGVVTLTTLHKVLQNLLAEKVPIRDMRTILETLAEHAPLQSDPHELTAVVRVALGRAITQQWFPGNEEVQVIGLDTALERLLLQALQGGGGLEPGLADRLLAQTQEALSRQKGGGAPPVLLVNHALRPLLSRFLRRSLPQLVVLSNLELSDNRHIRMTATIGGK [chain 2 E279K, chain 2 M280G, chain 2 L281G], the ratio to parent is about 10. Consider chain 2 SLGMEVGYRLIPMVDFQQDGELLGRIRSIRKKFAQDMGFLPPVVHIRDNMDLQPARYRILMKGVEIGSGDAYPGRWLAINPGTAAGTLPGEKTVDPAFGLDAIWIESALKEQAQIQGFTVVEASTVVATHLNHLIGQFSAELFGRQEAQQLLDRVSQEMPKLTEDLVPGVVTLTTLHKVLQNLLAEKVPIRDMRTILETLAEHAPLQSDPHELTAVVRVALGRAITQQWFPGNEEVQVIGLDTALERLLLQALQGGGGLEPGLADRLLAQTQEALSRQKMLGAPPVLLVNHALRPLLSRFLRRSLPQLVVLSNLELSDNRHIRMTATIGGK [chain 2 E279K], for which the ratio to parent was about 5. chain 2 SLGMEVGYRLIPMVDFQQDGELLGRIRSIRKKFAQDMGFLPPVVHIRDNMDLQPARYRILMKGVEIGSGDAYPGRWLAINPGTAAGTLPGEKTVDPAFGLDAIWIESALKEQAQIQGFTVKEASTVVATHLNHLIGQFSAELFGRQEAQQLLDRVSQEMPKLTEDLVPGVVTLTTLHKVLQNLLAEKVPIRDMRTILETLAEHAPLQSDPHELTAVVRVALGRAITQQWFPGNEEVQVIGLDTALERLLLQALQGGGGLEPGLADRLLAQTQEALSRQEMLGAPPVLLVNHALRPLLSRFLRRSLPQLVVLSNLELSDNRHIRMTATIGGK [chain 2 V121K]: the ratio to parent is about 7. Take chain 2 SLGMEVGYRLIPMVDFQQDGELLGRIRSIRKKFAQDMGFLPPVVHIRDNMDLQPARYRILMKGVEIGSGDAYPGRWLAINPGTAAGTLPGEKTVDPAFGLDAIWIESALKEQAQIQGFTVVEASTGVATHLNHLIGQFSAELFGRQEAQQLLDRVSQEMPKLTEDLVPGVVTLTTLHKVLQNLLAEKVPIRDMRTILETLAEHAPLQSDPHELTAVVRVALGRAITQQWFPGNEEVQVIGLDTALERLLLQALQGGGGLEPGLADRLLAQTQEALSRQEMLGAPPVLLVNHALRPLLSRFLRRSLPQLVVLSNLELSDNRHIRMTATIGGK [chain 2 V126G]: the ratio to parent is about 4. Turning to chain 2 SLGMEVGYRLIPMVDFQQDGELLGRIRSIRKKFAQDMGFLPPVVHIRDNMDLQPARYRILMKGVEIGSGDAYPGRWLAINPGTAAGTLPGEKTVDPAFGLDAIWIESALKEQAQIQGFTVVEASTVVAMHLNHLIGQFSAELFGRQEAQQLLDRVSQEMPKLTEDLVPGVVTLTTLHKVLQNLLAEKVPIRDMRTILETLAEHAPLQSDPHELTAVVRVALGRAITQQWFPGNEEVQVIGLDTALERLLLQALQGGGGLEPGLADRLLAQTQEALSRQEMLGAPPVLLVNHALRPLLSRFLRRSLPQLVVLSNLELSDNRHIRMTATIGGK [chain 2 T129M], the ratio to parent is about 3.3. As to chain 2 SLGMEVGYRLIPMVDFQQDGELLGRIRSIRKKFAQDMGFLPPVVHIRDNMDLQPARYRILMKGVEIGSGDAYPGRWLAANPGTAAGTLPGEKTVDPAFGLDAIWIESALKEQAQIQGFTVVEASTVVATHLNHLIGQFSAELFGRQEAQQLLDRVSQEMPKLTEDLVPGVVTLTTLHKVLQNLLAEKVPIRDMRTILETLAEHAPLQSDPHELTAVVRVALGRAITQQWFPGNEEVQVIGLDTALERLLLQALQGGGGLEPGLADRLLAQTQEALSRQEMLGAPPVLLVNHALRPLLSRFLRRSLPQLVVLSNLELSDNRHIRMTATIGGK [chain 2 I79A], the ratio to parent is about 6.

On to chain 2 SLGMEVGYRLIPMVDFQQDGELLGRIRSIRKKFAQDMGFLPPVVHIRDNMDLQPARYRILMKGVEIGSGDAYPGRWLAINPGTAAGTLPGEKTVDPAAGLDAIWIESALKEQAQIQGFTVVEASTVVATHLNHLIGQFSAELFGRQEAQQLLDRVSQEMPKLTEDLVPGVVTLTTLHKVLQNLLAEKVPIRDMRTILETLAEHAPLQSDPHELTAVVRVALGRAITQQWFPGNEEVQVIGLDTALERLLLQALQGGGGLEPGLADRLLAQTQEALSRQEMLGAPPVLLVNHALRPLLSRFLRRSLPQLVVLSNLELSDNRHIRMTATIGGK [chain 2 F98A], for which the ratio to parent was about 9.

The variants in a further assay derive from B2. Kind of assay: ITC; parent: 1; read off a plot.
In the case of chain 2 SLGMEVGYRLIPMVDFQQDGELLGRIRSIRKKFAQDMGFLPPVVHIRDNMDLQPARYRILMKGVEIGSGDAYPGRWLAINPGTAAGTLPGEKTVDPAFGLDAIWIESALKEQAQIQGFTVVEASTGVATHLNHLIGQFSAELFGRQEAQQLLDRVSQEMPKLTEDLVPGVVTLTTLHKVLQNLLAEKVPIRDMRTILETLAEHAPLQSDPHELTAVVRVALGRAITQQWFPGNEEVQVIGLDTALERLLLQALQGGGGLEPGLADRLLAQTQEALSRQEMLGAPPVLLVNHALRPLLSRFLRRSLPQLVVLSNLELSDNRHIRMTATIGGK [chain 2 V126G], the ratio to parent is about 15. The same measure, in the same setting: with chain 2 SLGMEVGYRLIPMVDFQQDGELLGRIRSIRKKFAQDMGFLPPVVHIRDNMDLQPARYRILMKGVEIGSGDAYPGRWLAINPGTAAGTLPGEKTVVPAFGLDAIWIESALKEQAQIQGFTVVEASTVVATHLNHLIGQFSAELFGRQEAQQLLDRVSQEMPKLTEDLVPGVVTLTTLHKVLQNLLAEKVPIRDMRTILETLAEHAPLQSDPHELTAVVRVALGRAITQQWFPGNEEVQVIGLDTALERLLLQALQGGGGLEPGLADRLLAQTQEALSRQEMLGAPPVLLVNHALRPLLSRFLRRSLPQLVVLSNLELSDNRHIRMTATIGGK [chain 2 D95V] the figure was about 15; with chain 2 SLGMEVGYRLIPMVDFQQDGELLGRIRSIRKKFAQDMGFLPPVVHIRDNMDLQPARYRILMKGVEIGSGDAYPGRWLAANPGTAAGTLPGEKTVDPAFGLDAIWIESALKEQAQIQGFTVVEASTVVATHLNHLIGQFSAELFGRQEAQQLLDRVSQEMPKLTEDLVPGVVTLTTLHKVLQNLLAEKVPIRDMRTILETLAEHAPLQSDPHELTAVVRVALGRAITQQWFPGNEEVQVIGLDTALERLLLQALQGGGGLEPGLADRLLAQTQEALSRQEMLGAPPVLLVNHALRPLLSRFLRRSLPQLVVLSNLELSDNRHIRMTATIGGK [chain 2 I79A], about 10; with chain 2 SLGMEVGYRLIPMVDFQQDGELLGRIRSIRKKFAQDMGFLPPVVHIRDNMDLQPARYRILMKGVEIGSGDAYPGRWLAINPGTAAGTLPGEKTVDPAFGADAIWIESALKEQAQIQGFTVVEASTVVATHLNHLIGQFSAELFGRQEAQQLLDRVSQEMPKLTEDLVPGVVTLTTLHKVLQNLLAEKVPIRDMRTILETLAEHAPLQSDPHELTAVVRVALGRAITQQWFPGNEEVQVIGLDTALERLLLQALQGGGGLEPGLADRLLAQTQEALSRQEMLGAPPVLLVNHALRPLLSRFLRRSLPQLVVLSNLELSDNRHIRMTATIGGK [chain 2 L100A], about 4. On the same count and under the same terms, for chain 2 SLGMEVGYRLIPMVDFQQDGELLGRIRSIRKKFAQDMGFLPPVVHIRDNMDLQPARYRILMKGVEIGSGDAYPGRWLAINPGTAAGTLPGEKTVDPAFGLDAIWIESALKEQAQIQGFTVKEASTVVATHLNHLIGQFSAELFGRQEAQQLLDRVSQEMPKLTEDLVPGVVTLTTLHKVLQNLLAEKVPIRDMRTILETLAEHAPLQSDPHELTAVVRVALGRAITQQWFPGNEEVQVIGLDTALERLLLQALQGGGGLEPGLADRLLAQTQEALSRQEMLGAPPVLLVNHALRPLLSRFLRRSLPQLVVLSNLELSDNRHIRMTATIGGK [chain 2 V121K] the value was about 12.

Variants of B2 are the subject of the next assay. Kind of assay: ITC; parent: 1; read off a plot. This is another data set of the same source.
On to chain 1 MYTASGIKAYAQGSVESAVMSASPHQLIEMLFDGANSALVRARLFLEQGDVVAKGEALSKAINIIDNGLKAGLDQEKGGEIATNLSELYDYMIRRLLQANLRNDAQAIEEVERLLSNIAEAWKQISPKASFQESRGTASGAGGSEGGGSEGGTSGATEDSDYATEVSNMSRAQILQQAGTSVLAQANQVPQNVLSLLR [chain 1 V13G], for which the ratio to parent was about 6.5.
